# According to article PMC9352680, “A comprehensive thermodynamic model for RNA binding by the Saccharomyces cerevisiae Pumilio protein PUF4”:
# Positions count from the first letter of the chain named. Names and notes keep the numbering of the source.
# B1: Ie_S2_P5E.1_K5.1_C5.1_H5.1_A5.1_F5.1_[+9T]_T5.1 (ssRNA)
# RNA: UUUGAUUAAUAUGAUAUCGUUCUUUCUUGUAUUAUUUAUUCUUUCUCGAUAUCAUAUUAAUCUUU
# B2: Ie_S2_P5E.1_K5.1_C5.1_H5.1_A5.1_F5.1_[+8C]_T5.1 (ssRNA)
# RNA: B1 RNA with U36C
# B3: Ib_S2_P3E.1_K3.1_C3.1_H3.1_[G2T]_[T3A]_A3.1_F3.1_T3.1 (ssRNA)
# RNA: UUUGAUUAAUAUGAUAUCGUUCUUUCUUUAAUAUAUUCUUUCUCGAUAUCAUAUUAAUCUUU
# B4: Ic_S2_P3E.1_K3.1_C3.1_H3.1_A3.1_[T5C]_F3.1_T3.1 (ssRNA)
# RNA: B3 RNA with U29G, A30U, U32C
# B5: Ib_S2_P3E.1_K3.1_C3.1_H3.1_[G2C]_[A4T]_A3.1_F3.1_T3.1 (ssRNA)
# RNA: B3 RNA with U29C, A30U, A31U
# B6: Ib_S2_P3E.1_K3.1_C3.1_H3.1_[G2C]_[A4C]_A3.1_F3.1_T3.1 (ssRNA)
# RNA: B3 RNA with U29C, A30U, A31C
# B7: Ib_S2_P3E.1_K3.1_C3.1_H3.1_[G2A]_[T3C]_A3.1_F3.1_T3.1 (ssRNA)
# RNA: B3 RNA with U29A, A30C
# B8: Ie_S2_P5E.1_K5.1_C5.1_H5.1_A5.1_[+6TCTCT]_F5.1_T5.1 (ssRNA)
# RNA: UUUGAUUAAUAUGAUAUCGUUCUUUCUUGUAUUUCUCUAUUAUUCUUUCUCGAUAUCAUAUUAAUCUUU
# B9: Ie_S2_P5E.1_K5.1_C5.1_H5.1_A5.1_F5.1_[+9CTCTC]_T5.1 (ssRNA)
# RNA: B8 RNA with U34A, C35U, A39C, U41C
# B10: Ie_S2_P5E.1_K5.1_C5.1_H5.1_A5.1_[+6CCTCT]_F5.1_T5.1 (ssRNA)
# RNA: B8 RNA with U34C
# B11: Ie_S2_P5E.1_K5.1_C5.1_H5.1_A5.1_[+7TCTCT]_F5.1_T5.1 (ssRNA)
# RNA: B8 RNA with U34A, C35U, U36C, C37U, U38C, A39U
# B12: Ie_S2_P5E.1_K5.1_C5.1_H5.1_A5.1_[+7CCTCT]_F5.1_T5.1 (ssRNA)
# RNA: B8 RNA with U34A, U36C, C37U, U38C, A39U
# B13: Ie_S2_P5E.1_K5.1_C5.1_H5.1_A5.1_[+7CTCTC]_F5.1_T5.1 (ssRNA)
# RNA: B8 RNA with U34A, A39C
# B14: Ie_S2_P5E.1_K5.1_C5.1_H5.1_A5.1_[+7TTCCT]_F5.1_T5.1 (ssRNA)
# RNA: B8 RNA with U34A, C35U, U38C, A39U
# B15: Ie_S2_P5E.1_K5.1_C5.1_H5.1_A5.1_F5.1_[+8CCCTT]_T5.1 (ssRNA)
# RNA: B8 RNA with U34A, C35U, U36C, U38C, A39U
# B16: Ie_S2_P5E.1_K5.1_C5.1_H5.1_A5.1_F5.1_[+9TCTCT]_T5.1 (ssRNA)
# RNA: B8 RNA with U34A, C35U, C37U, U38C, A39U, U40C
# B17: Ie_S2_P5E.1_K5.1_C5.1_H5.1_A5.1_F5.1_[+8CTCTC]_T5.1 (ssRNA)
# RNA: B8 RNA with U34A, C35U, U36C, C37U, U38C, A39U, U40C
# B18: Ie_S2_P5E.1_K5.1_C5.1_H5.1_A5.1_[+6TTCCT]_F5.1_T5.1 (ssRNA)
# RNA: B8 RNA with C35U, U36C
# B19: Ie_S2_P5E.1_K5.1_C5.1_H5.1_A5.1_[+6TTC]_F5.1_T5.1 (ssRNA)
# RNA: UUUGAUUAAUAUGAUAUCGUUCUUUCUUGUAUUUUCAUUAUUCUUUCUCGAUAUCAUAUUAAUCUUU
# B20: Ie_S2_P5E.1_K5.1_C5.1_H5.1_A5.1_[+7TCT]_F5.1_T5.1 (ssRNA)
# RNA: B19 RNA with U34A, A37U
# B21: Ie_S2_P5E.1_K5.1_C5.1_H5.1_A5.1_[+7CTT]_F5.1_T5.1 (ssRNA)
# RNA: B19 RNA with U34A, U35C, C36U, A37U
# B22: Ie_S2_P5E.1_K5.1_C5.1_H5.1_A5.1_F5.1_[+9TCC]_T5.1 (ssRNA)
# RNA: B19 RNA with U34A, C36U, A37U, U38C, U39C
# B23: Ie_S2_P5E.1_K5.1_C5.1_H5.1_A5.1_F5.1_[+8CCC]_T5.1 (ssRNA)
# RNA: B19 RNA with U34A, A37C, U38C
# B24: Ie_S2_P5E.1_K5.1_C5.1_H5.1_A5.1_F5.1_[+8TTC]_T5.1 (ssRNA)
# RNA: B19 RNA with U34A, C36U, A37U, U38C
# B25: Ie_S2_P5E.1_K5.1_C5.1_H5.1_A5.1_F5.1_[+9CCT]_T5.1 (ssRNA)
# RNA: B19 RNA with U34A, C36U, A37C, U38C
# B26: Ie_S2_P5E.1_K5.1_C5.1_H5.1_A5.1_F5.1_[+8CCT]_T5.1 (ssRNA)
# RNA: B19 RNA with U34A, A37C
# B27: Ie_S2_P5E.1_K5.1_C5.1_H5.1_A5.1_[+7CTC]_F5.1_T5.1 (ssRNA)
# RNA: B19 RNA with U34A, U35C, C36U, A37C
# B28: Ie_S2_P5E.1_K5.1_C5.1_H5.1_A5.1_F5.1_[+9CTC]_T5.1 (ssRNA)
# RNA: B19 RNA with U34A, C36U, A37C, U39C
# B29: Ie_S2_P5E.1_K5.1_C5.1_H5.1_A5.1_[+7CCT]_F5.1_T5.1 (ssRNA)
# RNA: B19 RNA with U34A, U35C, A37U
# B30: Ie_S2_P5E.1_K5.1_C5.1_H5.1_A5.1_F5.1_[+8TTT]_T5.1 (ssRNA)
# RNA: B19 RNA with U34A, C36U, A37U
# B31: Ie_S2_P5E.1_K5.1_C5.1_H5.1_A5.1_F5.1_[+9CTT]_T5.1 (ssRNA)
# RNA: B19 RNA with U34A, C36U, A37C
# B32: Ie_S2_P5E.1_K5.1_C5.1_H5.1_A5.1_F5.1_[+9TTC]_T5.1 (ssRNA)
# RNA: B19 RNA with U34A, C36U, A37U, U39C
# B33: Ie_S2_P5E.1_K5.1_C5.1_H5.1_A5.1_[+7CC]_F5.1_T5.1 (ssRNA)
# RNA: UUUGAUUAAUAUGAUAUCGUUCUUUCUUGUAUUACCUUAUUCUUUCUCGAUAUCAUAUUAAUCUUU
# B34: Ie_S2_P5E.1_K5.1_C5.1_H5.1_A5.1_F5.1_[+9TT]_T5.1 (ssRNA)
# RNA: B33 RNA with C35U, C36U
# B35: Ie_S2_P5E.1_K5.1_C5.1_H5.1_A5.1_[+7TC]_F5.1_T5.1 (ssRNA)
# RNA: B33 RNA with C35U
# B36: Ie_S2_P5E.1_K5.1_C5.1_H5.1_A5.1_F5.1_[+8TC]_T5.1 (ssRNA)
# RNA: B33 RNA with C35U, C36U, U37C
# B37: Ie_S2_P5E.1_K5.1_C5.1_H5.1_A5.1_[+6TCTC]_F5.1_T5.1 (ssRNA)
# RNA: UUUGAUUAAUAUGAUAUCGUUCUUUCUUGUAUUUCUCAUUAUUCUUUCUCGAUAUCAUAUUAAUCUUU
# B38: Ie_S2_P5E.1_K5.1_C5.1_H5.1_A5.1_F5.1_[+9CCTC]_T5.1 (ssRNA)
# RNA: B37 RNA with U34A, C35U, A38C, U40C
# B39: Ie_S2_P5E.1_K5.1_C5.1_H5.1_A5.1_F5.1_[+9TCTC]_T5.1 (ssRNA)
# RNA: B37 RNA with U34A, C35U, C37U, A38C, U40C
# B40: Ie_S2_P5E.1_K5.1_C5.1_H5.1_A5.1_F5.1_[+8CCTC]_T5.1 (ssRNA)
# RNA: B37 RNA with U34A, C35U, U36C, A38U, U39C
# B41: Ie_S2_P5E.1_K5.1_C5.1_H5.1_A5.1_[+7TCTC]_F5.1_T5.1 (ssRNA)
# RNA: B37 RNA with U34A, C35U, U36C, C37U, A38C
# B42: Ie_S2_P5E.1_K5.1_C5.1_H5.1_A5.1_F5.1_[+9CCCT]_T5.1 (ssRNA)
# RNA: B37 RNA with U34A, C35U, A38C, U39C
# B43: Ie_S2_P5E.1_K5.1_C5.1_H5.1_A5.1_[+6CCTC]_F5.1_T5.1 (ssRNA)
# RNA: B37 RNA with U34C
# B44: Ie_S2_P5E.1_K5.1_C5.1_H5.1_A5.1_[+7CCTC]_F5.1_T5.1 (ssRNA)
# RNA: B37 RNA with U34A, U36C, C37U, A38C
# B45: Ie_S2_P5E.1_K5.1_C5.1_H5.1_A5.1_F5.1_[+9TTCC]_T5.1 (ssRNA)
# RNA: B37 RNA with U34A, C35U, C37U, A38U, U39C, U40C
# B46: Ie_S2_P5E.1_K5.1_C5.1_H5.1_A5.1_[+6CCCT]_F5.1_T5.1 (ssRNA)
# RNA: B37 RNA with U34C, U36C, C37U
# B47: Ie_S2_P5E.1_K5.1_C5.1_H5.1_A5.1_F5.1_[+8CCCT]_T5.1 (ssRNA)
# RNA: B37 RNA with U34A, C35U, U36C, A38C
# B48: Ie_S2_P5E.1_K5.1_C5.1_H5.1_A5.1_[+7CTCT]_F5.1_T5.1 (ssRNA)
# RNA: B37 RNA with U34A, A38U
# B49: Ie_S2_P5E.1_K5.1_C5.1_H5.1_A5.1_F5.1_[+8TTCC]_T5.1 (ssRNA)
# RNA: B37 RNA with U34A, C35U, C37U, A38C, U39C
# B50: Ie_S2_P5E.1_K5.1_C5.1_H5.1_A5.1_[+7CCCT]_F5.1_T5.1 (ssRNA)
# RNA: B37 RNA with U34A, U36C, A38U
# B51: Ie_S2_P5E.1_K5.1_C5.1_H5.1_A5.1_[+7TTCC]_F5.1_T5.1 (ssRNA)
# RNA: B37 RNA with U34A, C35U, A38C
# Biological target: T1, PUF4 RNA-binding domain (Saccharomyces cerevisiae, UniProt P25339 537-888)
# T1 sequence: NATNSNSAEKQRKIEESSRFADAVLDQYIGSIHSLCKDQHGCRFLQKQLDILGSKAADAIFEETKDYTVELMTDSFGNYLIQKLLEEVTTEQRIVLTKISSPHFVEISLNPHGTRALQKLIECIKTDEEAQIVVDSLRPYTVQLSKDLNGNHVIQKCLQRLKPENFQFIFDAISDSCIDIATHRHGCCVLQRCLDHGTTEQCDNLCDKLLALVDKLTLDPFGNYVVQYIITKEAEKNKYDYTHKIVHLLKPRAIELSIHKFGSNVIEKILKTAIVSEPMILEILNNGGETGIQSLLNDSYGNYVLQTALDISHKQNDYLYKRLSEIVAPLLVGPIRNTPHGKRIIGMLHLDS
# Assay: Mg; RNA-MaP; 20 mM Na-HEPES pH 7.4, 30 mM KOAc, 0.75 mM MgCl2, 0.1% Tween-20, 5% glycerol, 0.1 mg/mL BSA, 2 mM DTT; 25 C; 0.0125-409.6 nM protein
# Details: tags: N-His6-TEV cleaved; C-SNAP kept, Cy3B-labelled; label: tethered on chip by stalled RNA polymerase
row,Binder,Kd [nM]
1,B1,5.9
2,B2,11.6
3,B3,1460
4,B4,1.76
5,B5,1670
6,B6,2150
7,B7,> 2300
8,B8,12.9
9,B9,13.7
10,B10,20.8
11,B11,17.2
12,B12,57.6
13,B13,47.3
14,B14,7.84
15,B15,15.2
16,B16,6.98
17,B17,13.1
18,B18,12.3
19,B19,28.6
20,B20,15.8
21,B21,25.2
22,B22,15.6
23,B23,12.8
24,B24,7.64
25,B25,7.29
26,B26,16.6

row,Binder,Kd [nM]
1,B27,42.2
2,B28,22.6
3,B29,31.6
4,B30,8.05
5,B31,10.5
6,B32,14.1
7,B33,58.9
8,B34,8.73
9,B35,11.8
10,B36,10.3
11,B37,75.2
12,B38,16.4
13,B39,10.2
14,B40,15.8
15,B41,18.3
16,B42,8.29
17,B43,99.6
18,B44,49
19,B45,13.2
20,B46,15.6
21,B47,11.6
22,B48,51.9
23,B49,9.45
24,B50,74
25,B51,10.1
